Experimental data from patent publication US20130260455A1 (ONCOMED PHARMACEUTICALS, published 2013).

T1: hN2 1-9 (human Notch2 amino acids 1-378 fused to hFc) (human, UniProt Q04721 26-378)
T1 construct: not shown: constant region of human IgG (hFc)
T1 sequence: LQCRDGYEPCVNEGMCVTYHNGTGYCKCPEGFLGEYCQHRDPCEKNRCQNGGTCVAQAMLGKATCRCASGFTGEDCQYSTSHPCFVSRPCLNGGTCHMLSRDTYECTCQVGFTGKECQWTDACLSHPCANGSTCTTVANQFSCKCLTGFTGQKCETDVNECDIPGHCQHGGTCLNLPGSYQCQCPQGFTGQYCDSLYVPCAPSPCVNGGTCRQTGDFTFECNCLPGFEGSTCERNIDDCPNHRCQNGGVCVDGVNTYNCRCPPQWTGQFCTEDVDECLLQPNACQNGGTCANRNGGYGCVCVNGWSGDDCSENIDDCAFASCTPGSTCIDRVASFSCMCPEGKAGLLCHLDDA

T2: hN2 1-6 (human Notch2 amino acids 1-263 fused to hFc) (human, UniProt Q04721 26-263)
T2 construct: not shown: constant region of human IgG (hFc)
T2 sequence: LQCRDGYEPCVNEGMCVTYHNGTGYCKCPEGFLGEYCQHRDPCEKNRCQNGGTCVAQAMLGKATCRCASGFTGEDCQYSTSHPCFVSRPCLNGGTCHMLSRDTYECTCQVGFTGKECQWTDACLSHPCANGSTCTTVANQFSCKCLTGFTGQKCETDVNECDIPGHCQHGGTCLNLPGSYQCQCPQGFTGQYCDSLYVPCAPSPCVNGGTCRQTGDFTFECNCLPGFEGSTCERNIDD

T3: hN2 1-7 (human Notch2 amino acids 1-301 fused to hFc) (human, UniProt Q04721 26-301)
T3 construct: not shown: constant region of human IgG (hFc)
T3 sequence: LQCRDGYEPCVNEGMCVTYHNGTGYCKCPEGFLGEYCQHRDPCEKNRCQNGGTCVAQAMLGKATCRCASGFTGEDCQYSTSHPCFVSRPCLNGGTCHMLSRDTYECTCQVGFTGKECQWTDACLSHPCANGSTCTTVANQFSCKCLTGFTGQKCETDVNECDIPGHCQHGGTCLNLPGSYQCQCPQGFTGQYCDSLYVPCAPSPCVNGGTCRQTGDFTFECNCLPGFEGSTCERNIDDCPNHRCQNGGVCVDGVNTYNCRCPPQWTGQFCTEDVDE

T4: hN2 1-8 (human Notch2 amino acids 1-341 fused to hFc) (human, UniProt Q04721 26-341)
T4 construct: not shown: constant region of human IgG (hFc)
T4 sequence: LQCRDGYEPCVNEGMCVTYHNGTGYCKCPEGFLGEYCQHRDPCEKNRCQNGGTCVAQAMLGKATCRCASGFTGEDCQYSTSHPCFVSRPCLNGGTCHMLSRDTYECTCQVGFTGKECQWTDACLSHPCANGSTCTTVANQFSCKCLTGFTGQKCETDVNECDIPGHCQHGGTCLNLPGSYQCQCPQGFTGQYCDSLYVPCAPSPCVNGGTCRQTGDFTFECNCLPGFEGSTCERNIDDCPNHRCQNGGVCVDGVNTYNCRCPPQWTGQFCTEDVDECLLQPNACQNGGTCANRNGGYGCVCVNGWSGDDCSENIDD

T5: hN2 11-12 (human Notch2 amino acids 413-493 fused to hFc) (human, UniProt Q04721 413-493)
T5 construct: not shown: constant region of human IgG (hFc)
T5 sequence: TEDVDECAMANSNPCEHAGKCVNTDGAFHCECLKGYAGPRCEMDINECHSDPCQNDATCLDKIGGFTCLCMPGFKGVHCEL

T6: hN2 12-12 (human Notch2 amino acids 454-493 fused to hFc) (human, UniProt Q04721 454-493)
T6 construct: not shown: constant region of human IgG (hFc)
T6 chain: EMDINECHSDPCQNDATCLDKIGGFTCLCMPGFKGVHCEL

T7: recombinant mouse Notch3 (EGF9-14) (mouse, UniProt Q61982 352-581)
T7 construct: domain: EGF9-14; also called mNotch3; m-Notch3
T7 sequence (looked up): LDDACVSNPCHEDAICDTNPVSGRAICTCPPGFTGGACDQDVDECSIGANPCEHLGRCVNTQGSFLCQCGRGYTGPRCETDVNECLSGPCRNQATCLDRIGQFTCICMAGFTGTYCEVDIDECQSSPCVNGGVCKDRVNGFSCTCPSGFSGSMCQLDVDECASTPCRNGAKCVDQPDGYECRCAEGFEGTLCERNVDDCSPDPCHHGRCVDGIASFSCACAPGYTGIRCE

T8: recombinant human Notch3 (EGF9-14) (human, UniProt Q9UM47 351-580)
T8 construct: The whole entry for hNotch3 is named here; also called hNotch3; h-Notch3
T8 sequence: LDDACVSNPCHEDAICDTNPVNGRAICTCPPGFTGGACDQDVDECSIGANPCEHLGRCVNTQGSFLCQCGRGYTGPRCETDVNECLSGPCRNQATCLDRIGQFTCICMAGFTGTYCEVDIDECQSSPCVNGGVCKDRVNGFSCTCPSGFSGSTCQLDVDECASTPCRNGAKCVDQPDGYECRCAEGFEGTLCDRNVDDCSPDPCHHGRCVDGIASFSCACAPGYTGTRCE

T9: human Notch2 as used in the Biacore analysis of Table 6 (construct not stated) (human, UniProt Q04721 375-605, limits assumed)
T9 construct: also called h-Notch2
T9 sequence: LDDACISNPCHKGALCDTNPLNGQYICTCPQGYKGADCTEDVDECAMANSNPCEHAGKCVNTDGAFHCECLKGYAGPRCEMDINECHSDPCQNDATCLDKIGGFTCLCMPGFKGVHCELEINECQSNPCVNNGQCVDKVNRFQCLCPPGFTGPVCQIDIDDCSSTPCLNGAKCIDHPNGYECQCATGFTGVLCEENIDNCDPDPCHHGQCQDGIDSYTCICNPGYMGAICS

T10: recombinant mouse Notch2 (EGF10-15) (mouse, UniProt O35516 375-605)
T10 construct: domain: EGF10-15; also called mNotch2; m-Notch2
T10 sequence (looked up): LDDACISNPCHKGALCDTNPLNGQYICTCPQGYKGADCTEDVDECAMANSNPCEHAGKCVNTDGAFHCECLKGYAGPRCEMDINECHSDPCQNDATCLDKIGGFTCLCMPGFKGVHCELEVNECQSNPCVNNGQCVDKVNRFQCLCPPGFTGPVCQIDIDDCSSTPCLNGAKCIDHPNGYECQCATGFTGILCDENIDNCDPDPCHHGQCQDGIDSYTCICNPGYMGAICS


Experiments:
[1] = molecular target: T1, hN2 1-9 (human Notch2 amino acids 1-378 …); test: capture ELISA: hN2-hFc from HEK-293 supernatant on anti-human Fc plates, 59R1 Fab, HRP anti-human Fab [upper graph]
Procedure: (§1) The binding of anti-Notch2/3 antibodies to supernatant from HEK 293 cells transfected with sequences encoding recombinant human Notch2 Fc fusion proteins comprising the full length human Notch2 protein or various human Notch2 deletion constructs containing various deletions of EGF repeats one to twelve were tested by ELISA. HEK-293 cells were transiently transfected with pcDNA 3.1 (Invitrogen) with hNotch2 cDNA's encoding for the indicated amino acids fused to the constant region of human IgG (hFc). Supernatants were harvested 48 hours later. To capture hN2-hfc proteins, 96 well plates were first coated with goat anti-human Fec gamma specific IgG (Jackson Immunochemicals, #109-006-098) at 100 ng per well in sodium bicarbonate buffer overnight at 4°. Plates were washed and blocked in 5% bovine serum/PBS-Tween-20. Supernatants were added to plates and incubated at room temperature for 1 hour. Plates were washed in PBS-T. 59R1 Fab was added at 10 μg/ml in 5% serum/PBS-T and incubated at room temperature for 1 hour. Plates were washed in PBS-T. Fab binding was detected by goat anti-human Fab specific antibody conjugated to horseradish peroxidase (Thermo. #31414) diluted 1:5000 in 5% serum/PBS-T for 1 hour at room temperature. Plates were washed and developed with 1 Step Ultra TMB (Thermo. #34028). Plates were read on a Perkin Elmer Victor 1420 plate reader. […] (FIG. 3A).

[2] = molecular target: T11, hN2 1-5 (human Notch2 amino acids 1-221 fused to hFc) (human, UniProt Q04721 26-221); test: as above
T11 construct: not shown: constant region of human IgG (hFc)
Procedure: as §1

[3] = molecular target: T2, hN2 1-6 (human Notch2 amino acids 1-263 …); test: as above
Procedure: as §1

[4] = molecular target: T3, hN2 1-7 (human Notch2 amino acids 1-301 …); test: as above
Procedure: as §1

[5] = molecular target: T12, hN2 1-3 (human Notch2 amino acids 1-144 fused to hFc) (human, UniProt Q04721 26-144); test: as above
T12 construct: Supernatant of transfected HEK-293 cells, captured with anti-human Fc; not shown: constant region of human IgG (hFc)
Procedure: as §1

[6] = molecular target: T4, hN2 1-8 (human Notch2 amino acids 1-341 …); test: as above
Procedure: as §1

[7] = molecular target: T13, hN2 1-4 (human Notch2 amino acids 1-181 fused to hFc) (human, UniProt Q04721 26-181); test: as above
T13 construct: not shown: constant region of human IgG (hFc)
Procedure: as §1

[8] = molecular target: T5, hN2 11-12 (human Notch2 amino acids …); test: capture ELISA: hN2-hFc from HEK-293 supernatant on anti-human Fc plates, 59R1 Fab, HRP anti-human Fab [lower graph]
Procedure: as §1

[9] = molecular target: T6, hN2 12-12 (human Notch2 amino acids …); test: as above
Procedure: as §1

[10] = molecular target: T7, recombinant mouse Notch3 (EGF9-14); test: Biacore SPR
[11] = molecular target: T8, recombinant human Notch3 (EGF9-14); test: Biacore SPR
[12] = molecular target: T9, human Notch2 as used in the Biacore …; test: Biacore SPR
[13] = molecular target: T10, recombinant mouse Notch2 (EGF10-15); test: Biacore SPR
[14] = molecular target: T14, human Notch1, full length, on transfected cells (human, UniProt P46531 19-2555); test: FACS on HEK 293 cells transiently transfected with Notch1 Full Length and GFP
T14 construct: also called hNotch1
T14 sequence (P46531 19-2555 limits assumed): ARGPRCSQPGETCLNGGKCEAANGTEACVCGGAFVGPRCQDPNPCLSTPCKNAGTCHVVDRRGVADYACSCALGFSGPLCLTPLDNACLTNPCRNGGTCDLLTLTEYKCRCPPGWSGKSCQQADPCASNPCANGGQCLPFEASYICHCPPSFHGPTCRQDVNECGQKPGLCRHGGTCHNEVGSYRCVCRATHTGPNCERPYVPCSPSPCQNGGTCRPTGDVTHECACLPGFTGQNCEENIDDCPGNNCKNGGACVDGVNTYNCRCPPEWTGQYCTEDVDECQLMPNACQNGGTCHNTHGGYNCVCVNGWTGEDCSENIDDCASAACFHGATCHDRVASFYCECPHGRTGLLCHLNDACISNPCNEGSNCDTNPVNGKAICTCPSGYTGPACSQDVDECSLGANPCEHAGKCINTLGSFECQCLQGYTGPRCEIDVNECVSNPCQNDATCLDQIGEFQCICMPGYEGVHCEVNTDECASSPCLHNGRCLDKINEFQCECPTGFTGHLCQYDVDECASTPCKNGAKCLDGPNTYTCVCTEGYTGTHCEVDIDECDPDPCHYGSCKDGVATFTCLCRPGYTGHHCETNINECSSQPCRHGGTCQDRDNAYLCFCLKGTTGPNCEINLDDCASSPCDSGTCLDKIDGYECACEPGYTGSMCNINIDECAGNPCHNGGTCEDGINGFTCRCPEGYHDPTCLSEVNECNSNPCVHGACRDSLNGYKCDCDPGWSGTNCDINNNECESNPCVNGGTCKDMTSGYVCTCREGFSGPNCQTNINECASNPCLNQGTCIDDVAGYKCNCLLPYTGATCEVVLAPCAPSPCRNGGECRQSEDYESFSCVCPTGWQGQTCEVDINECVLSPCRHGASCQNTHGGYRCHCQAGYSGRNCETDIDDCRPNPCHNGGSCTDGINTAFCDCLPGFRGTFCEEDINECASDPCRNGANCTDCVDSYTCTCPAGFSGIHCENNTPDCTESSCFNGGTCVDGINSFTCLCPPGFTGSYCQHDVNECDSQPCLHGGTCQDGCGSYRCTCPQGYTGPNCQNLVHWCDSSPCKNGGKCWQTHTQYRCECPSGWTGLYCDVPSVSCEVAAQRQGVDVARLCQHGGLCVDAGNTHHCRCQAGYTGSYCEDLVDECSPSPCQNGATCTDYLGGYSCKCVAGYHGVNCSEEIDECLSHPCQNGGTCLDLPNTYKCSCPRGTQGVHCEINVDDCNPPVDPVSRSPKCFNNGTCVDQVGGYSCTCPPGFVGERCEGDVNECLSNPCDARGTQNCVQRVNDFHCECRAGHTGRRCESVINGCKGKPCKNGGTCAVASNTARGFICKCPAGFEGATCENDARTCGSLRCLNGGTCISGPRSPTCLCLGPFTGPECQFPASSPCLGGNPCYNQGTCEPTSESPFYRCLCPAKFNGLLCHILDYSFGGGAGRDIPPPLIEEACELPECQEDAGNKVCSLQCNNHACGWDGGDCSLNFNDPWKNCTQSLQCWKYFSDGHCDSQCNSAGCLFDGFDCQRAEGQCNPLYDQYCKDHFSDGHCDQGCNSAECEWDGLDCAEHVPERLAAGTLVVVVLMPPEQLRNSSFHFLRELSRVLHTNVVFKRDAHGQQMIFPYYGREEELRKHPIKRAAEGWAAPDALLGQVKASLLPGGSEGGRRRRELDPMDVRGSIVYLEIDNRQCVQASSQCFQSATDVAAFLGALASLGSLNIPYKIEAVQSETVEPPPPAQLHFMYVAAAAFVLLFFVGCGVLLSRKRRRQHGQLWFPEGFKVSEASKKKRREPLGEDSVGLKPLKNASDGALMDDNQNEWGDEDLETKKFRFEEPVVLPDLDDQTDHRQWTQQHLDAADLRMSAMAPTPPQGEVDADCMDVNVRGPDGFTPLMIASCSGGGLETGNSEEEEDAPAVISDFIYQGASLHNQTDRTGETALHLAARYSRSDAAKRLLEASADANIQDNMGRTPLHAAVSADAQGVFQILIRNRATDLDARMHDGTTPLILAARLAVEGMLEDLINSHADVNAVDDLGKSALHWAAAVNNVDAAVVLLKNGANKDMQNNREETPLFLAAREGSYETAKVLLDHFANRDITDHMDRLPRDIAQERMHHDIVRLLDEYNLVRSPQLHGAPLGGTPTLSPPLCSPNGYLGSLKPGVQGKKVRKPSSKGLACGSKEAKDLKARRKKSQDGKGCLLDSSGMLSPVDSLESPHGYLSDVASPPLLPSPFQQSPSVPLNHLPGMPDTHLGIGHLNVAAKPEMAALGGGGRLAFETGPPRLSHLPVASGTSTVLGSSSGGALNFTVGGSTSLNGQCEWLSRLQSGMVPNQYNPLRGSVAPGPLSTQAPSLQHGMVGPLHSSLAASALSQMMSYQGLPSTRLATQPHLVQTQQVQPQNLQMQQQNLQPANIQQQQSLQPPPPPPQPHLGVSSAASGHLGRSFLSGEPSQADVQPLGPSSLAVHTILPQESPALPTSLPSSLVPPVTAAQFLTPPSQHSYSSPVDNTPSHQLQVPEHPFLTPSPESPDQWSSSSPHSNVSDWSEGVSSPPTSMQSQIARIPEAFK
Procedure: FIG. 15. In vitro characterization of 59R5. […] PC3 tumor cells were transiently transfected with human or mouse Notch receptor (hN2, human Notch2; mN2, murine Notch2; hN3, human Notch3; mN3, murine Notch3) and GFP inducible reporter construct. Transfected cells were incubated with different concentrations of antibody 59R1 and 59R5 in the presence of passively immobilized DLL4 Fc. […] Cells were also co-transfected with a plasmid encoding green fluorescent protein (GFP) to mark those cells that received transfected plasmid. Cells were incubated with 59R1 or 59R5 and fluorescent secondary antibody and then examined by FACS.
The binding epitope of 59R5 was determined. As was described in Example 3 for analysis of antibody 59R1, several point mutants were created within full-length Notch1, converting residues within EGF10 to the corresponding amino acids in human Notch 2. Mutants in full-length Notch sequences were generated by QuikChange® mutagenesis (Stratagene) and verified by sequencing. […] Cells were also co-transfected with a plasmid encoding green fluorescent protein (GFP) to mark those cells that received transfected plasmid. Cells were incubated with 59R1 or 59R5 and fluorescent secondary antibody and then examined by FACS. 59R1 and 59R5 were detected by PE-conjugated goat anti-human Fc gamma specific antibody (Jackson Immunochemicals, #109-116-170).

Row | binding result [1] | binding result [2] | binding result [3] | binding result [4] | binding result [5] | binding result [6] | binding result [7] | binding result [8] | binding result [9] | Kd [10] [nM] | Kd [11] [nM] | Kd [12] [nM] | Kd [13] [nM] | binding result [14] | Binder
1 | no binding (tested: 10 ug/ml) | no binding (tested: 10 ug/ml) | no binding (tested: 10 ug/ml) | no binding (tested: 10 ug/ml) | no binding (tested: 10 ug/ml) | no binding (tested: 10 ug/ml) | no binding (tested: 10 ug/ml) | no binding (tested: 10 ug/ml) | no binding (tested: 10 ug/ml) | – | – | – | – | – | 59R1 Fab (Fab, V domains shown, also called Clone 1; 59R Fab antibody) VH: QVQLVESGGGLVQPGGSLRLSCAASGFTFSSSGMSWVRQAPGKGLEWVSVIASSGSNTYYADSVKGRFTISRDNSKNTLYLQMNSLRAEDTAVYYCARGIFFAIWGQGTLVTVSS VL: not shown
2 | – | – | – | – | – | – | – | – | – | 0.29 | 0.22 | 0.05 | 0.26 | no binding | 59R5 antibody (antibody, human IgG2, kappa, V domains shown, Human IgG2; also called anti-Notch2/3 antibody 59R5; 59R5 IgG2) VH: EVQLVESGGGLVQPGGSLRLSCAASGFTFSSSGMSWVRQAPGKGLEWVSVIASSGSNTYYADSVKGRFTISRDNSKNTLYLQMNSLRAEDTAVYYCARSIFYTTWGQGTLVTVSS VL: not shown
